Reference: patent US7067619 (LA JOLLA CANCER RESEARCH FOUNDATION, dated 2006)
Bridge positions count the residues as written; N and C are the ends. Ends that are not written are not given here.

Tests used:
[1] = molecular target: T1, α5β1 integrin isolated from human placental extract (human, UniProt P08648 42-1049; P05556 21-798); experiment: phage binding to α5β1-coated wells
T1 construct: coated on plastic wells or captured by anti-α5 antibody; also called fibronectin receptor

[2] = molecular target: αvβ5 integrin on HT-29 and UCLA-P3 cells (UniProt P06756 31-1048; P18084 24-799); experiment: cell-based or functional assay
[3] = molecular target: αvβ3 integrin on IMR-90 cells (UniProt P06756 31-1048; P05106 27-788); experiment: cell-based or functional assay
[4] = molecular target: T2, αvβ3 integrin isolated from human placental extract (human, UniProt P06756 31-1048; P05106 27-788); experiment: competition with phage on αvβ3-coated wells
T2 construct: isolated on GRGDSPK-Sepharose; said to be primarily αvβ3

[5] = molecular target: T3, αvβ5 integrin isolated from human placental extract (human, UniProt P06756 31-1048; P18084 24-799); experiment: competition with … phage on αvβ5-coated wells
Procedure: [SEQ ID NO:10] sequence were incubated for 1 hour in integrin-coated wells in the presence of the competing peptides or dimethyl sulfoxide solvent as a control.

[6] = molecular target: T3, αvβ5 integrin isolated from human …; experiment: affinity chromatography of placental extract
[7] = molecular target: T2, αvβ3 integrin isolated from human …; experiment: phage competition on αvβ3-coated wells
[8] = molecular target: T3, αvβ5 integrin isolated from human …; experiment: phage competition on αvβ5-coated wells
[9] = molecular target: T2, αvβ3 integrin isolated from human …; experiment: phage panning on coated integrin
Procedure: In the first panning, the integrins were coated at 5 µg per well, and the library pool was incubated for 4 hours at 25° C. in TBS buffer containing 1% bovine serum albumin and 1 mM MnCl_2 (α_5β_1, α_vβ_3) 1 mM MgCl_2 ($\alphaIIb\beta_3$) or 1 mM CaCl_2 (α_vβ_5).

[10] = molecular target: T1, α5β1 integrin isolated from human …; experiment: phage binding to integrin-coated wells

T3 sequence (P06756 31-1048, chain 1 of 2): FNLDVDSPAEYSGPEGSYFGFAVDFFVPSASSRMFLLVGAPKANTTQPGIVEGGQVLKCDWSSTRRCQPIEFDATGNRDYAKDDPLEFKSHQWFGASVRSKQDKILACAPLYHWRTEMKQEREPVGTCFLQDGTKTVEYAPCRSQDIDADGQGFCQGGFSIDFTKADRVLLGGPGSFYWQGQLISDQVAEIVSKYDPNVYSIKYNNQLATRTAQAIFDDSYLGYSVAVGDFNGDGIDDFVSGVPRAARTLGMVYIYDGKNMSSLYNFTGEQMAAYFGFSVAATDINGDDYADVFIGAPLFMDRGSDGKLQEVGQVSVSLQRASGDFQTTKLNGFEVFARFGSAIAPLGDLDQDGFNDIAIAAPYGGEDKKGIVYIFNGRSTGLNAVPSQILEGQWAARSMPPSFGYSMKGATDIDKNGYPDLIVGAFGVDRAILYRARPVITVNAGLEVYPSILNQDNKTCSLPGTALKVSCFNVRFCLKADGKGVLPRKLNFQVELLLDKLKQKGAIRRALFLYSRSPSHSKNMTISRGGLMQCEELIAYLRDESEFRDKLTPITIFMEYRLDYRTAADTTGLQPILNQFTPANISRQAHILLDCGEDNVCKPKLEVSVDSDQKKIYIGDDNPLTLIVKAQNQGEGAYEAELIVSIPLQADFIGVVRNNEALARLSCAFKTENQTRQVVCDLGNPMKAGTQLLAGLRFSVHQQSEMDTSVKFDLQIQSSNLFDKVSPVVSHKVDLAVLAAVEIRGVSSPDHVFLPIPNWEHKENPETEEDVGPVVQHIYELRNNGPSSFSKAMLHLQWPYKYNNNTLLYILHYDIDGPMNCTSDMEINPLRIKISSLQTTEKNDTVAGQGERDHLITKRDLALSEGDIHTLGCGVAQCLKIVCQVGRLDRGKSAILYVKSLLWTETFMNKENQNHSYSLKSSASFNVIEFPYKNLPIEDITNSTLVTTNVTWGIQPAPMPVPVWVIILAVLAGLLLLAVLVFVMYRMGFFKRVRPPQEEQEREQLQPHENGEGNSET
T3 sequence (P18084 24-799, chain 2 of 2): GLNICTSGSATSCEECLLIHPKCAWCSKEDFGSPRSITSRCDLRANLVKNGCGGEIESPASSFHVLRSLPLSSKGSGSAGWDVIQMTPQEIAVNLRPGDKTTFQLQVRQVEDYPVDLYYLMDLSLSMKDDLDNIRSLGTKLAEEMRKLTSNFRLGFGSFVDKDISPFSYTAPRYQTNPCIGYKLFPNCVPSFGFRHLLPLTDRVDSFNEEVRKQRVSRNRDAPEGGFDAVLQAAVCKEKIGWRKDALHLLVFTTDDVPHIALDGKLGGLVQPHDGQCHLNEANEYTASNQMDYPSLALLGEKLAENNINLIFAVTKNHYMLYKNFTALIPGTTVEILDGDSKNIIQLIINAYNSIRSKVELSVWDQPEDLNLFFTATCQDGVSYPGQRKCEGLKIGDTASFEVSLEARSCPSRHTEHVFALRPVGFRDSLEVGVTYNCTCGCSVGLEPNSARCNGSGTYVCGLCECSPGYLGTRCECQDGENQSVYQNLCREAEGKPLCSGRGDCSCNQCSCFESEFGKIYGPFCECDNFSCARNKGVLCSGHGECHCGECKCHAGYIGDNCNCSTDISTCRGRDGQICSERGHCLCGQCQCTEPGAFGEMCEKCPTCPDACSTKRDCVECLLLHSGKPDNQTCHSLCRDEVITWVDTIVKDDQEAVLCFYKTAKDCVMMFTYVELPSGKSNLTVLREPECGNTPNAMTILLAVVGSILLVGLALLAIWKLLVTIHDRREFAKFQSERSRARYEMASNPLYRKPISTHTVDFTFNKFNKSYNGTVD
T2 sequence (P06756 31-1048, chain 1 of 2): as the sequence (P06756 31-1048, chain 1 of 2) above
T2 sequence (P05106 27-788, chain 2 of 2): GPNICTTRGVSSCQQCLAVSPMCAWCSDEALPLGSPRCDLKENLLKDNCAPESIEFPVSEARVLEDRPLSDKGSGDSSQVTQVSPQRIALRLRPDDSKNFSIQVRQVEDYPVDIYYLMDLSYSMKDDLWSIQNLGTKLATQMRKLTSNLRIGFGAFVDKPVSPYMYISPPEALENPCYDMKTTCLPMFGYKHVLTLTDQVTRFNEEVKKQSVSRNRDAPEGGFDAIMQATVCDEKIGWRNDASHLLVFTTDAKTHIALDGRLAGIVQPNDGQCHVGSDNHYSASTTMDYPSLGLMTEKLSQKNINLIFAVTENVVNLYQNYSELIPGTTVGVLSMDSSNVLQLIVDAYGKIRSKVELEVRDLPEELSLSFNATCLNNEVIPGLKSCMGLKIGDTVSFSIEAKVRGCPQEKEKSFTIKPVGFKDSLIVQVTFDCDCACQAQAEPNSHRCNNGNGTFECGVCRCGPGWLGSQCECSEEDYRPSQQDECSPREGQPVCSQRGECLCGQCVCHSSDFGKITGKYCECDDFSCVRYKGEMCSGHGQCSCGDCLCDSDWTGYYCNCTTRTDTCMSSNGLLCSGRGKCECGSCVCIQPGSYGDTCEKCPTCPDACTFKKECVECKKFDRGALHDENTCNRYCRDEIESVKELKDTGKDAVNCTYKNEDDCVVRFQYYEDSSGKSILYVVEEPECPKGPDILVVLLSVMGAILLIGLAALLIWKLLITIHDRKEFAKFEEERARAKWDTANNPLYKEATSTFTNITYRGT
Sequence of αvβ5 integrin on HT-29 and UCLA-P3 cells (P06756 31-1048, chain 1 of 2): as the sequence (P06756 31-1048, chain 1 of 2) above
Sequence of αvβ5 integrin on HT-29 and UCLA-P3 cells (P18084 24-799, chain 2 of 2): as the sequence (P18084 24-799, chain 2 of 2) above
Sequence of αvβ3 integrin on IMR-90 cells (P06756 31-1048, chain 1 of 2): as the sequence (P06756 31-1048, chain 1 of 2) above
Sequence of αvβ3 integrin on IMR-90 cells (P05106 27-788, chain 2 of 2): as the sequence (P05106 27-788, chain 2 of 2) above
T1 sequence (P08648 42-1049, chain 1 of 2): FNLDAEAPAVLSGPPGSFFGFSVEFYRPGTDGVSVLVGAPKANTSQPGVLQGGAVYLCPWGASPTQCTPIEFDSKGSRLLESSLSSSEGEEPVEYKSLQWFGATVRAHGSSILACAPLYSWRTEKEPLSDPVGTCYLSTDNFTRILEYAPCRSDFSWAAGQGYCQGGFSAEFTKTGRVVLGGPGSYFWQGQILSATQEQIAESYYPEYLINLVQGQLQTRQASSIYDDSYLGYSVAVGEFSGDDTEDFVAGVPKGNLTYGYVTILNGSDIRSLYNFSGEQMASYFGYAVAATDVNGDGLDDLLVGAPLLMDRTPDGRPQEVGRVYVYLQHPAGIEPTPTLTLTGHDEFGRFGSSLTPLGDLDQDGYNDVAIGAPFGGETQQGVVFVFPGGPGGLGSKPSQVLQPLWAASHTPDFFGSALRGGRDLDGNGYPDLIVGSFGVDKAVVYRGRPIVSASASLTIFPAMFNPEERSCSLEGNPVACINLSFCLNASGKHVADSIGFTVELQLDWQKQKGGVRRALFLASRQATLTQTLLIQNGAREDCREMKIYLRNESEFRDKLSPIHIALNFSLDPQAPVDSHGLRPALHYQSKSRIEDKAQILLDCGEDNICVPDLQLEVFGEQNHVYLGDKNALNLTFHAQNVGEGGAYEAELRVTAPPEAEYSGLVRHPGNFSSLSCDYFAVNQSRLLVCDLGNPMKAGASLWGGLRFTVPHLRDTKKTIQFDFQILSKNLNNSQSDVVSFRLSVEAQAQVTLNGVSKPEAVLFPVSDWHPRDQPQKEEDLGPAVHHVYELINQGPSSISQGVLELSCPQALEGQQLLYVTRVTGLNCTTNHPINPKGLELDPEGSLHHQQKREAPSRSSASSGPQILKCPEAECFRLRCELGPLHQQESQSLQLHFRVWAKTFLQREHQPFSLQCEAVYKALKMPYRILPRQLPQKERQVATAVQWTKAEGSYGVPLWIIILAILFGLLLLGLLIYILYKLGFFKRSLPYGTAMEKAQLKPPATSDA
T1 sequence (P05556 21-798, chain 2 of 2): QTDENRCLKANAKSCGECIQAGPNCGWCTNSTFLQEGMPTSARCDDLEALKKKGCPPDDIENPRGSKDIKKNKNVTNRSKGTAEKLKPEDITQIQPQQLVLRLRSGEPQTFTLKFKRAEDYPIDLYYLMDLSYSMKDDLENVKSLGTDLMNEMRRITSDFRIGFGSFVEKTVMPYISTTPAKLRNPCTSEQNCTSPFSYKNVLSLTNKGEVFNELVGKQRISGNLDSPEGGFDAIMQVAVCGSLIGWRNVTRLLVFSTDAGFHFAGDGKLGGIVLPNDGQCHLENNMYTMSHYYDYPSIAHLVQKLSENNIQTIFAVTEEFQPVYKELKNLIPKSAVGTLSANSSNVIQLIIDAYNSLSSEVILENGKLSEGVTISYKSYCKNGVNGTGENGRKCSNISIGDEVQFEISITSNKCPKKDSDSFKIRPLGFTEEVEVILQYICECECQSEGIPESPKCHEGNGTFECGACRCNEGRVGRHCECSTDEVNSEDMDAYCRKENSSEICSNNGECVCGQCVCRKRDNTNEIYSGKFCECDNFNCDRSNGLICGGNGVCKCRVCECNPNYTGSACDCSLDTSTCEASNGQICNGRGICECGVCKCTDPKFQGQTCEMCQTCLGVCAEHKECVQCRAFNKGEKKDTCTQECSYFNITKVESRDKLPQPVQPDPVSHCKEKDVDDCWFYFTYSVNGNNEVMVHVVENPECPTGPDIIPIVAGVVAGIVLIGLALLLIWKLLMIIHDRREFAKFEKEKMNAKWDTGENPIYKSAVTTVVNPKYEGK

B1: CRGDCL-displaying phage (peptide)
peptide: CRGDCL
notes: on fuse 5 phage, fused to pIII; also called phage expressing CRGDCL
binding result [1]: binds

B2: cyclized peptide ACDCRGDCFCG (peptide)
peptide: ACDCRGDCFCG
modifications: disulfide (positions not given here); also: two disulfide bonds, pairing not determined
notes: synthetic; also called double disulfide bond-containing peptide
IC50 of inhibition of attachment of HT-29 cells to vitronectin [2]: 600 nM
IC50 of inhibition of attachment of UCLA-P3 cells to vitronectin [2]: 600 nM
fold enhancement in activity relative to *CRGDC*, UCLA-P3 cells [2]: 20 fold
fold higher affinity than *CRGDC*, attachment of HT-29 cells to vitronectin [2]: 40 fold
fold higher affinity than A*CRGDGWC*G, attachment of HT-29 cells to vitronectin [2]: 40 fold
IC50 of inhibition of attachment of IMR-90 cells to vitronectin [3]: 200 nM
fold more effective than *CRGDC*, attachment of IMR-90 cells to vitronectin [3]: 20 fold
fold better inhibition than *CRGDC* [4]: 5 fold
fold more potent than *CRGDC* [5]: 10 fold

B3: vitronectin purified from human plasma (ligand, UniProt P04004 20-478, looked up)
chain: DQESCKGRCTEGFNVDKKCQCDELCSYYQSCCTDYTAECKPQVTRGDVFTMPEDEYTVYDDGEEKNNATVHEQVGGPSLTSDLQAQSKGNPEQTPVLKPEEEAPAPEVGASKPEGIDSRPETLHPGRPQPPAEEELCSGKPFDAFTDLKNGSLFAFRGQYCYELDEKAVRPGYPKLIRDVWGIEGPIDAAFTRINCQGKTYLFKGSQYWRFEDGVLDPDYPRNISDGFDGIPDNVDAALALPAHSYSGRERVYFFKGKQYWEYQFQHQPSQEECEGSSLSAVFEHFAMMQRDSWEDIFELLFWGRTSAGTRQPQFISRDWHGVPGQVDAAMAGRIYISGMAPRPSLAKKQRFRHRNRKGYRSQRGHSRGRNQNSRRPSRATWLSLFSSEESNLGANNYDDYRMDWLVPATCEPIQSVFFFSGDKYYRVNLRTRRVDTVDPPYPRSIAQYWLGCPAPGHL
notes: also called labeled vitronectin
binding result [6]: binds

B4: cyclic peptide A*CPSRLDSPC*G (peptide)
peptide: ACPSRLDSPCG
modifications: disulfide 2-10 (inferred)
notes: synthetic; also called RLD-containing peptide
fold lower activity than *CRGDC* [7]: 100 fold
fold lower activity than *CRGDC* [8]: 1000 fold

B5: CPSRLDSPC phage (peptide)
peptide: CPSRLDSPC
modifications: disulfide 1-9 (inferred); not fully specified (N-terminus, C-terminus)
notes: on fuse 5 phage, fused to pIII; also called RLD-containing phage
binding result [9]: binds
binding result [10]: no binding
